The record followed here is PMC10707181, “Neuronal Scaffold Protein ARMS Interacts with Synaptotagmin-4 C2AB through the Ankyrin Repeat Domain with an Unexpected Mode” (International Journal of Molecular Sciences, 2023).

B1: ARMS ankyrin repeats 1–11 (R1-11, residues 1–365) [rat] / Syt4 132–425 [human] (parent complex)
chain 1: MSVLISQSVINYVEEENIPALKALLEKCKDVDERNECGQTPLMLAAEQGNVEIVKELLKNGANCNLEDLDNWTALISASKEGHIHIVEELLKSGASLEHRDMGGWTALMWACYKGRTDVVELLLSHGANPSVTGLYSVYPIIWAAGRGHADIVHLLLQNGAKVNCSDKYGTTPLVWAARKGHLECVKHLLAMGADVDQEGANSMTALIVAVKGGYTQSVKEILKRNPNVNLTDKDGNTALMIASKEGHIEIVQDLLDAGTYVNIPDRSGDTVLIGAVRGGHVEIVRALLQKYADIDIRGQDNKTALYWAVEKGNATMVRDILQCNPDTEICTKDGETPLIKATKMRNIEVVELLLDKGAKVSAVD
chain 2: ESVSPESLKSSTSLTSEEKQEKLGTLFFSLEYNFERKAFVVNIKEARGLPAMDEQSMTSDPYIKMTILPEKKHKVKTRVLRKTLDPAFDETFTFYGIPYTQIQELALHFTILSFDRFSRDDIIGEVLIPLSGIELSEGKMLMNREIIKRNVRKSSGRGELLISLCYQSTTNTLTVVVLKARHLPKSDVSGLSDPYVKVNLYHAKKRISKKKTHVKKCTPNAVFNELFVFDIPCEGLEDISVEFLVLDSERGSRNEVIGQLVLGAAAEGTGGEHWKEICDYPRRQIAKWHVLCDG

This test covers variants of B1. Briefly: ITC; parent: 1.2e+04 nM. Background: Isothermal titration calorimetry measures the heat released or taken up as one component is titrated into another.
One may read the Kd as the equilibrium constant for the complex coming apart. Consider chain 2 R152A, for which the Kd turned out to be 4 µM.

As for chain 2 K148A, chain 2 R149A, the Kd is 9 µM.

On to chain 2 R157A, for which the Kd stood at 10 µM. As for chain 2 Q55A, the figure is 3 µM. As for chain 2 K153A, the figure is 3 µM; as for chain 2 K148A, chain 2 R149A, chain 2 R152A, 19 µM. Take chain 2 R152A, chain 2 K153A: the Kd was found to be 4 µM.
